Reference: PMC4703885

Molecular target: protein phosphatase PP1 (endogenous), P36873
Experiment: EGFP trap, immunoblotting, densitometric analysis
Conditions: chain shown with the change; non-synchronized HEK293T cells; three independent experiments; parent: est. 1.0; read off a plot

protein phosphatase PP1 (endogenous), P36873, sequence (P36873 whole entry): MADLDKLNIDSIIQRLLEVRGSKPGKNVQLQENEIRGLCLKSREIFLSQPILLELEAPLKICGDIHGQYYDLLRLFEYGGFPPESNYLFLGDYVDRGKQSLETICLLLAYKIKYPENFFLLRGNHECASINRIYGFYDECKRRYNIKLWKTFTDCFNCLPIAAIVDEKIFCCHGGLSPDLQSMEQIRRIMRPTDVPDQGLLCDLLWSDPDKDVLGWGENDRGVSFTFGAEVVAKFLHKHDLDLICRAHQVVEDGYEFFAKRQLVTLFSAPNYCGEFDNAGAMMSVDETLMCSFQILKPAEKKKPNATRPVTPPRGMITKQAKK

B1: EGFP-tagged RepoMan-WT, Q69YH5 S400D; T412D; T419D (protein)
chain: MDANSKDKPPETKESAMNNAGNASFILGTGKIVTPQKHAELPPNPCTPDTFKSPLNFSTVTVEQLGITPESFVRNSAGKSSSYLKKCRRRSAVGARGSPETNHLIRFIARQQNIKNARKSPLAQDSPSQGSPALYRNVNTLRERISAFQSAFHSIKENEKMTGCLEFSEAGKESEMTDLTRKEGLSACQQSGFPAVLSSKRRRISYQRDSDENLTDAEGKVIGLQIFNIDTDRACAVETSVDLSEISSKLGSTQSGFLVEESLPLSELTETSNALKVADCVVGKGSSDAVSPDTFTAEVSSDAVPDVRSPATPACRRDLPTPKTFVLRSVLKKPSVKMCLESLQEHCNNLYDDDGTHPSLISNLPNCCKEKEAEDEENFEAPAFLNMRKRKRVTFGEDLDPEVFDESLPANDPLRKGGDPVCKKDFSGLSSLLLEQSPVPEPLPQPDFDDKGENLENIEPLQVSFAVLSSPNKSSISETLSGTDTFSSSNNHEKISSPKVGRITRTSNRRNQLVSVVEESVCNLLNTEVQPCKEKKINRRKSQETKCTKRALPKKSQVLKSCRKKKGKGKKSVQKSLYGERDIASKKPLLSPIPELPEVPEMTPSIPSIRRLGSGYFSSNGKLEEVKTPKNPVKRKDLLRHDPDLHMHQGYDKYDVSEFCSYIKSSSSLGNATSDEDPNTNIMNINENKNIPKAKNKSESENEPKAGTDSPVSCASVTEERVASDSPKPALTLQQGQEFSAGGQNAENLCQFFKISPDLNIKCERKDDFLGAAEGKLQCNRLMPNSQKDCHCLGDVLIENTKESKSQSEDLGRKPMESSSVVSCRDRKDRRRSMCYSDGRSLHLEKNGNHTPSSSVGSSVEISLENSELFKDLSDAIEQTFQRRNSETKVRRSTRLQKDLENEGLVWISLPLPSTSQKAKRRTICTFDSSGFESMSPIKETVSSRQKPQMAPPVSDPENSQGPAAGSSDEPGKRRKSFCISTLANTKATSQFKGYRRRSSLNGKGESSLTALERIEHNGERKQ
ratio to parent: 0.19

B2: EGFP-tagged RepoMan-WT, Q69YH5 T412D (protein)
chain: MDANSKDKPPETKESAMNNAGNASFILGTGKIVTPQKHAELPPNPCTPDTFKSPLNFSTVTVEQLGITPESFVRNSAGKSSSYLKKCRRRSAVGARGSPETNHLIRFIARQQNIKNARKSPLAQDSPSQGSPALYRNVNTLRERISAFQSAFHSIKENEKMTGCLEFSEAGKESEMTDLTRKEGLSACQQSGFPAVLSSKRRRISYQRDSDENLTDAEGKVIGLQIFNIDTDRACAVETSVDLSEISSKLGSTQSGFLVEESLPLSELTETSNALKVADCVVGKGSSDAVSPDTFTAEVSSDAVPDVRSPATPACRRDLPTPKTFVLRSVLKKPSVKMCLESLQEHCNNLYDDDGTHPSLISNLPNCCKEKEAEDEENFEAPAFLNMRKRKRVTFGEDLSPEVFDESLPANDPLRKGGTPVCKKDFSGLSSLLLEQSPVPEPLPQPDFDDKGENLENIEPLQVSFAVLSSPNKSSISETLSGTDTFSSSNNHEKISSPKVGRITRTSNRRNQLVSVVEESVCNLLNTEVQPCKEKKINRRKSQETKCTKRALPKKSQVLKSCRKKKGKGKKSVQKSLYGERDIASKKPLLSPIPELPEVPEMTPSIPSIRRLGSGYFSSNGKLEEVKTPKNPVKRKDLLRHDPDLHMHQGYDKYDVSEFCSYIKSSSSLGNATSDEDPNTNIMNINENKNIPKAKNKSESENEPKAGTDSPVSCASVTEERVASDSPKPALTLQQGQEFSAGGQNAENLCQFFKISPDLNIKCERKDDFLGAAEGKLQCNRLMPNSQKDCHCLGDVLIENTKESKSQSEDLGRKPMESSSVVSCRDRKDRRRSMCYSDGRSLHLEKNGNHTPSSSVGSSVEISLENSELFKDLSDAIEQTFQRRNSETKVRRSTRLQKDLENEGLVWISLPLPSTSQKAKRRTICTFDSSGFESMSPIKETVSSRQKPQMAPPVSDPENSQGPAAGSSDEPGKRRKSFCISTLANTKATSQFKGYRRRSSLNGKGESSLTALERIEHNGERKQ
ratio to parent: 0.43
